{"source": "the supplement of paper PMC11316812", "key": {"hTERT-HMEC": {"tested_on": "hTERT-HMEC", "test": "percentage of EdU-negative (G0-arrested) nuclei per well, 72 h; higher = more G0 arrest", "conditions": "reference: sequence is the full UniProt precursor, the tested protein was the secreted form or ectodomain"}, "MCF7": {"tested_on": "MCF7", "test": "percentage of EdU-negative (G0-arrested) nuclei per well, 72 h; higher = more G0 arrest", "conditions": "reference: sequence is the full UniProt precursor, the tested protein was the secreted form or ectodomain"}, "[1]": {"conditions": "protein concentration 0.0257143 µM"}, "[2]": {"conditions": "protein concentration 0.257143 µM"}, "[3]": {"conditions": "protein concentration 0.03125 µM"}, "[4]": {"conditions": "protein concentration 0.3125 µM"}, "[5]": {"conditions": "protein concentration 0.0153175 µM"}, "[6]": {"conditions": "protein concentration 0.153175 µM"}, "[7]": {"conditions": "protein concentration 0.0225 µM"}, "[8]": {"conditions": "protein concentration 0.0322857 µM"}, "[9]": {"conditions": "protein concentration 0.322857 µM"}, "[10]": {"conditions": "protein concentration 0.03123 µM"}, "[11]": {"conditions": "protein concentration 0.3123 µM"}}, "note": "± gives the standard deviation of the averaged measurements.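 Further: secreted proteins added to cultured cells, EdU pulse at the end, nuclei found by Hoechst imaging, EdU status from nuclear versus surrounding ring intensity ratio, PBS as neutral control.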", "data": [{"sequence": "MRTQSLLLLGALLAVGSQLPAVFGRKKGEKSGGCPPDDGPCLLSVPDQCVEDSQCPLTRKCCYRACFRQCVPRVSVKLGSCPEDQLRCLSPMNHLCHKDSDCSGKKRCCHSACGRDCRDPARGTAPGCPGQANSDLGSVALHLSWGPTERVHDGRPGALPAGQHYLYQRWFQPSDNHWPADTSLQPIHPWFLLLGVKVHSLSSEEGLCITPVLCTTAIRASHPS [Q8TCV5]", "values": [{"measurement": "percentage of EdU-negative", "setting": "hTERT-HMEC; [1]", "result": "5.766 ± 0.04", "unit": "%"}, {"measurement": "percentage of EdU-negative", "setting": "hTERT-HMEC; [2]", "result": "5.25 ± 1.3", "unit": "%"}, {"measurement": "percentage of EdU-negative", "setting": "MCF7; [1]", "result": "23.5 ± 0.78", "unit": "%"}, {"measurement": "percentage of EdU-negative", "setting": "MCF7; [2]", "result": "28.7 ± 0.3", "unit": "%"}]}, {"sequence": "MPLLWLRGFLLASCWIIVRSSPTPGSEGHSAAPDCPSCALAALPKDVPNSQPEMVEAVKKHILNMLHLKKRPDVTQPVPKAALLNAIRKLHVGKVGENGYVEIEDDIGRRAEMNELMEQTSEIITFAESGTARKTLHFEISKEGSDLSVVERAEVWLFLKVPKANRTRTKVTIRLFQQQKHPQGSLDTGEEAEEVGLKGERSELLLSEKVVDARKSTWHVFPVSSSIQRLLDQGKSSLDVRIACEQCQESGASLVLLGKKKKKEEEGEGKKKGGGEGGAGADEEKEQSHRPFLMLQARQSEDHPHRRRRRGLECDGKVNICCKKQFFVSFKDIGWNDWIIAPSGYHANYCEGECPSHIAGTSGSSLSFHSTVINHYRMRGHSPFANLKSCCVPTKLRPMSMLYYDDGQNIIKKDIQNMIVEECGCS", "values": [{"measurement": "percentage of EdU-negative", "setting": "hTERT-HMEC; [3]", "result": "5.64 ± 0.18", "unit": "%"}, {"measurement": "percentage of EdU-negative", "setting": "hTERT-HMEC; [4]", "result": "5.29 ± 1.4", "unit": "%"}, {"measurement": "percentage of EdU-negative", "setting": "MCF7; [3]", "result": "26.6 ± 1.6", "unit": "%"}, {"measurement": "percentage of EdU-negative", "setting": "MCF7; [4]", "result": "27.8 ± 1.4", "unit": "%"}]}, {"sequence": "MSPNFKLQCHFILIFLTALRGESRYLELREAADYDPFLLFSANLKRELAGEQPYRRALRCLDMLSLQGQFTFTADRPQLHCAAFFISEPEEFITIHYDQVSIDCQGGDFLKVFDGWILKGEKFPSSQDHPLPSAERYIDFCESGLSRRSIRSSQNVAMIFFRVHEPGNGFTLTIKTDPNLFPCNVISQTPNGKFTLVVPHQHRNCSFSIIYPVVIKISDLTLGHVNGLQLKKSSAGCEGIGDFVELLGGTGLDPSKMTPLADLCYPFHGPAQMKVGCDNTVVRMVSSGKHVNRVTFEYRQLEPYELENPNGNSIGEFCLSGL", "values": [{"measurement": "percentage of EdU-negative", "setting": "hTERT-HMEC; [5]", "result": "5.2 ± 0.25", "unit": "%"}, {"measurement": "percentage of EdU-negative", "setting": "hTERT-HMEC; [6]", "result": "6.58 ± 0.22", "unit": "%"}, {"measurement": "percentage of EdU-negative", "setting": "MCF7; [5]", "result": "25.7 ± 1.4", "unit": "%"}, {"measurement": "percentage of EdU-negative", "setting": "MCF7; [6]", "result": "28.3 ± 0.6", "unit": "%"}]}, {"sequence": "MRIMLLFTAILAFSLAQSFGAVCKEPQEEVVPGGGRSKRDPDLYQLLQRLFKSHSSLEGLLKALSQASTDPKESTSPEKRDMHDFFVGLMGKRSVQPDSPTDVNQENVPSFGILKYPPRAE [Q9UHF0]", "values": [{"measurement": "percentage of EdU-negative", "setting": "hTERT-HMEC; [7]", "result": "5.911 ± 0.0092", "unit": "%"}, {"measurement": "percentage of EdU-negative", "setting": "hTERT-HMEC; protein concentration 0.225 µM", "result": "5.91 ± 0.065", "unit": "%"}, {"measurement": "percentage of EdU-negative", "setting": "MCF7; [7]", "result": "22.8 ± 2.6", "unit": "%"}, {"measurement": "percentage of EdU-negative", "setting": "MCF7; protein concentration 0.225 µM", "result": "25.6 ± 1.7", "unit": "%"}]}, {"sequence": "MSSENCFVAENSSLHPESGQENDATSPHFSTRHEGSFQVPVLCAVMNVVFITILIIALIALSVGQYNCPGQYTFSMPSDSHVSSCSEDWVGYQRKCYFISTVKRSWTSAQNACSEHGATLAVIDSEKDMNFLKRYAGREEHWVGLKKEPGHPWKWSNGKEFNNWFNVTGSDKCVFLKNTEVSSMECEKNLYWICNKPYK", "values": [{"measurement": "percentage of EdU-negative", "setting": "hTERT-HMEC; [7]", "result": "5.44 ± 1.4", "unit": "%"}, {"measurement": "percentage of EdU-negative", "setting": "hTERT-HMEC; protein concentration 0.225 µM", "result": "5.3 ± 0.56", "unit": "%"}, {"measurement": "percentage of EdU-negative", "setting": "MCF7; [7]", "result": "23.5 ± 0.69", "unit": "%"}, {"measurement": "percentage of EdU-negative", "setting": "MCF7; protein concentration 0.225 µM", "result": "23.6 ± 0.57", "unit": "%"}]}, {"sequence": "MASYLYGVLFAVGLCAPIYCVSPANAPSAYPRPSSTKSTPASQVYSLNTDFAFRLYRRLVLETPSQNIFFSPVSVSTSLAMLSLGAHSVTKTQILQGLGFNLTHTPESAIHQGFQHLVHSLTVPSKDLTLKMGSALFVKKELQLQANFLGNVKRLYEAEVFSTDFSNPSIAQARINSHVKKKTQGKVVDIIQGLDLLTAMVLVNHIFFKAKWEKPFHPEYTRKNFPFLVGEQVTVHVPMMHQKEQFAFGVDTELNCFVLQMDYKGDAVAFFVLPSKGKMRQLEQALSARTLRKWSHSLQKRWIEVFIPRFSISASYNLETILPKMGIQNVFDKNADFSGIAKRDSLQVSKATHKAVLDVSEEGTEATAATTTKFIVRSKDGPSYFTVSFNRTFLMMITNKATDGILFLGKVENPTKS [Q86WD7]", "values": [{"measurement": "percentage of EdU-negative", "setting": "hTERT-HMEC; [8]", "result": "5.19 ± 0.14", "unit": "%"}, {"measurement": "percentage of EdU-negative", "setting": "hTERT-HMEC; [9]", "result": "6.1 ± 0.46", "unit": "%"}, {"measurement": "percentage of EdU-negative", "setting": "MCF7; [8]", "result": "27.1 ± 1.6", "unit": "%"}, {"measurement": "percentage of EdU-negative", "setting": "MCF7; [9]", "result": "25.7 ± 0.86", "unit": "%"}]}, {"sequence": "MWVPVVFLTLSVTWIGAAPLILSRIVGGWECEKHSQPWQVLVASRGRAVCGGVLVHPQWVLTAAHCIRNKSVILLGRHSLFHPEDTGQVFQVSHSFPHPLYDMSLLKNRFLRPGDDSSHDLMLLRLSEPAELTDAVKVMDLPTQEPALGTTCYASGWGSIEPEEFLTPKKLQCVDLHVISNDVCAQVHPQKVTKFMLCAGRWTGGKSTCSGDSGGPLVCNGVLQGITSWGSEPCALPERPSLYTKVVHYRKWIKDTIVANP", "values": [{"measurement": "percentage of EdU-negative", "setting": "hTERT-HMEC; [7]", "result": "4.97 ± 0.14", "unit": "%"}, {"measurement": "percentage of EdU-negative", "setting": "hTERT-HMEC; [10]", "result": "4.99 ± 0.4", "unit": "%"}, {"measurement": "percentage of EdU-negative", "setting": "hTERT-HMEC; protein concentration 0.225 µM", "result": "5.29 ± 0.6", "unit": "%"}, {"measurement": "percentage of EdU-negative", "setting": "hTERT-HMEC; [11]", "result": "6.47 ± 0.73", "unit": "%"}, {"measurement": "percentage of EdU-negative", "setting": "MCF7; [7]", "result": "26.3 ± 1.2", "unit": "%"}, {"measurement": "percentage of EdU-negative", "setting": "MCF7; [10]", "result": "27.3 ± 0.96", "unit": "%"}, {"measurement": "percentage of EdU-negative", "setting": "MCF7; protein concentration 0.225 µM", "result": "25 ± 2", "unit": "%"}, {"measurement": "percentage of EdU-negative", "setting": "MCF7; [11]", "result": "26.3 ± 0.32", "unit": "%"}]}]}
